Series [1] concerns the target T1, Sth1(301-1097) (budding yeast, UniProt P32597 301-1097). Put plainly: EMSA. The conditions noted are these: apparent Kd, Anisotropy: 20 mM HEPES pH 7.5, 50 mM NaCl, 2.5 mM MgCl2, 5% glycerol, 1 mM DTT, 0.1 mg/mL BSA, 1 mM AMPPNP or ADP, 50 nM DNA, 20 C, EMSA: 20 mM HEPES pH 7.5 ….
Series [2] has as its target T2, Rtt102;Arp7;Arp9;Sth1(301-1097) (budding yeast;budding yeast;budding …, UniProt P53330;Q12406;Q05123;P32597 1-157;1-477;1-467;301-1097, |||). Put plainly: EMSA. Conditions: apparent Kd, Anisotropy: 20 mM HEPES pH 7.5, 50 mM NaCl, 2.5 mM MgCl2, 5% glycerol, 1 mM DTT, 0.1 mg/mL BSA, 1 mM AMPPNP or ADP, 50 nM DNA, 20 C, EMSA: 20 mM HEPES pH 7.5 ….
Target sequence in this assay (P32597 301-1097, one chain of several): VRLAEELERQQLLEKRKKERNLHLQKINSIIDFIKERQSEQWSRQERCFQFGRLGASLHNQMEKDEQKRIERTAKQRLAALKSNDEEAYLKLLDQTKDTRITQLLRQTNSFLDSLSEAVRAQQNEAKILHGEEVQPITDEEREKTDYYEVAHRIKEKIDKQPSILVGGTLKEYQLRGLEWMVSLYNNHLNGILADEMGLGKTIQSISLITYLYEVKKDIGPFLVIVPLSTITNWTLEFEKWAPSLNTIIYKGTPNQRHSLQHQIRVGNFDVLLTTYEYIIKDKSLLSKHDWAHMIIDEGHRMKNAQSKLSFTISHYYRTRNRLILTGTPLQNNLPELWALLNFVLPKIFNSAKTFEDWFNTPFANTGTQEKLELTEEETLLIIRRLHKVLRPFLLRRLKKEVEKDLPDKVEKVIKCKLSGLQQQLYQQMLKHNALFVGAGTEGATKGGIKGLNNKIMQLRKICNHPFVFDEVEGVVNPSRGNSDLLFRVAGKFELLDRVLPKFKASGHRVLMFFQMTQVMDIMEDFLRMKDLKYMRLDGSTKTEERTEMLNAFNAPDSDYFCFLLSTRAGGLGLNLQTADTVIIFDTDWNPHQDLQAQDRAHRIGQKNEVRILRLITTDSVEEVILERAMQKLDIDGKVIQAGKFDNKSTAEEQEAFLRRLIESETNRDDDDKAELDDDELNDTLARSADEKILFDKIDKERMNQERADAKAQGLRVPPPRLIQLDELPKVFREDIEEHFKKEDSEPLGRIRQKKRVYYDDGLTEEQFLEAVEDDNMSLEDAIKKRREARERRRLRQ
The target of a further series is T3, Rtt102-Arp7/9 (Saccharomyces cerevisiae, UniProt Q12406).
T3 construct: heterotrimer reconstituted from Rtt102 and Arp7/9 (2:1 mix, gel filtration); Rtt102 157 aa; with Actin-like protein ARP9; Regulator of Ty1 transposition protein 102
T3 sequence (Q12406 1-477): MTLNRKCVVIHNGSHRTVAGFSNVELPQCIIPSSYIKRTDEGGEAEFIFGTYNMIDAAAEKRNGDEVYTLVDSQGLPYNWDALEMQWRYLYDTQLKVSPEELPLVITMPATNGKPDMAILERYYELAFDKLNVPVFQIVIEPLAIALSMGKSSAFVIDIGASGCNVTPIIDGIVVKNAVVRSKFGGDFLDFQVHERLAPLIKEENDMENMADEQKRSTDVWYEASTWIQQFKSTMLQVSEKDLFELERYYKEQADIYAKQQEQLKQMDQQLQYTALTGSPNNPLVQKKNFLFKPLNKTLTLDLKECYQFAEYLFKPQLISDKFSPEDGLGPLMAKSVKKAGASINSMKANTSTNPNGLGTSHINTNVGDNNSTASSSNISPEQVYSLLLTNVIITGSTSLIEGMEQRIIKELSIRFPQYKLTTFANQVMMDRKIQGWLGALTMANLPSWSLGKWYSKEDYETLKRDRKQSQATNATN
T3 sequence (Q05123 1-467 partner): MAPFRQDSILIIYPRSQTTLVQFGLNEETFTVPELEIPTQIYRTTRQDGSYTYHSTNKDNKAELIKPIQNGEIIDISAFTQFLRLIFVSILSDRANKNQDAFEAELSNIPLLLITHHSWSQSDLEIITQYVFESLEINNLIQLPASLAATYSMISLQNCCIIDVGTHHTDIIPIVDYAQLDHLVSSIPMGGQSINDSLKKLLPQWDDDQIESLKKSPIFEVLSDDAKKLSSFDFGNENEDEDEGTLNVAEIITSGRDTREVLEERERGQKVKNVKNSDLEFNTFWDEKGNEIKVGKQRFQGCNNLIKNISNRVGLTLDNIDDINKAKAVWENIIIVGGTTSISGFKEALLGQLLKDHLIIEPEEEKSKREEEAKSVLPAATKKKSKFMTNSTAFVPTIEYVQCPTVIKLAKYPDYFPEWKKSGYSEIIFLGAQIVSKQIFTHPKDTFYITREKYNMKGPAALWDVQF
T3 sequence (P53330 1-157 partner): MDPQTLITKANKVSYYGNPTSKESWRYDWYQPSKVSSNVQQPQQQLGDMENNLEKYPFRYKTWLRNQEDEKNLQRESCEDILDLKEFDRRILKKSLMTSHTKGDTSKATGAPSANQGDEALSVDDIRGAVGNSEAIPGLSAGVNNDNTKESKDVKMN
Put plainly: X-ray crystallography ([…] Å). In kind it is binding. Conditions: pre-incubated with 1 mM ATP; ATP bound in nucleotide cleft of Arp7, not Arp9; no cation seen; not hydrolysed.

Series [3] addresses T4, Rtt102-Arp7/9-Sth1_301–1097 (Saccharomyces cerevisiae, UniProt P32597).
T4 construct: gene STH1; quaternary complex; Sth1 residues 301-1097 (HSA, pHSA, ATPase domains), Ni-NTA purified; with Actin-related protein 7; Actin-like protein ARP9; Regulator of Ty1 transposition protein 102
Put plainly: phosphate release (MESG/purine nucleoside phosphorylase, […] nm). In kind it is biochemical. Conditions: 1 mM ATP, plasmid DNA, 2.5 mM MgCl2, pH 7.0, 22 °C; hydrolysis by the Sth1 subunit.

The target in series [4] is nucleosome (Xenopus laevis histone octamer on 601 nucleosomal DNA) (Xenopus laevis). Put plainly: native gel or EMSA; native gel shift, 1 mM AMPPNP; nucleosomes held constant, Sth1 constructs up to 10 μM; 20 mM HEPES pH 7.5, 50 mM NaCl, 5% glycerol, 1 mM DTT, 0.1 mg/mL BSA, 1 mM MgCl2; 30 min room temperature, gel at 4 °C; apparent KD from a single-site hyperbolic fit.
For series [5] the target is unchanged. Put plainly: native gel or EMSA; native gel shift, 1 mM ADP; nucleosomes held constant, Sth1 constructs up to 10 μM; 20 mM HEPES pH 7.5, 50 mM NaCl, 5% glycerol, 1 mM DTT, 0.1 mg/mL BSA, 1 mM MgCl2; 30 min room temperature, gel at 4 °C; apparent KD from a single-site hyperbolic fit.
In series [6] the target is Sth1(365-1097) P1swap (budding yeast; Rad54 segment from S. solfataricus) (UniProt P32597). Put plainly: fluorescence anisotropy. Conditions: nucleotide state not visible in material; Anisotropy: 20 mM HEPES pH 7.5, 50 mM NaCl, 2.5 mM MgCl2, 5% glycerol, 1 mM DTT, 0.1 mg/mL BSA, 1 mM AMPPNP or ADP, 50 nM DNA, 20 C; EMSA: 20 mM HEPES pH 7.5 ….
For series [7], the target named is Rtt102-Arp7/9-bound His-HSA–pHSA fragment (budding yeast) (UniProt P32597). Put plainly: pull-down; TEV cleavage and co-purification assay: purified Sth1 constructs at 6 μM (±Arp7/9 and Rtt102) cut with TEV protease overnight, His-tagged N-terminal fragment held on Ni-NTA resin; 20 mM HEPES pH 7.5, 500 mM NaCl, 5% glycerol, 25 mM imidazole, 1 mM MgCl2, 0.1 mM AMPPNP; eluted with 250 mM imidazole; SDS-PAGE, Coomassie.

The next series deals with Sth1(365-1097) (budding yeast, UniProt P32597 365-1097). Put plainly: fluorescence anisotropy; nucleotide state not visible in material; Anisotropy: 20 mM HEPES pH 7.5, 50 mM NaCl, 2.5 mM MgCl2, 5% glycerol, 1 mM DTT, 0.1 mg/mL BSA, 1 mM AMPPNP or ADP, 50 nM DNA, 20 C; EMSA: 20 mM HEPES pH 7.5, 50 mM NaCl, 1 mM MgCl2, 5% glycerol, 1 mM DTT, 0.1 mg/mL BSA, 1 mM ADP or AMPPNP, room temperature. The conditions noted are these: protein: recombinant; label: 5'-fluorescein; strands 21 and 22 nt: 21 bp with 1 nt 5' overhang (T) on strand 2.

The target of series [8] is T1, Sth1(301-1097). Put plainly: fluorescence anisotropy; 1 mM AMPPNP; Anisotropy: 20 mM HEPES pH 7.5, 50 mM NaCl, 2.5 mM MgCl2, 5% glycerol, 1 mM DTT, 0.1 mg/mL BSA, 1 mM AMPPNP or ADP, 50 nM DNA, 20 C; EMSA: 20 mM HEPES pH 7.5, 50 mM NaCl, 1 mM MgCl2, 5% glycerol, 1 mM DTT, 0.1 mg/mL BSA, 1 mM ADP or AMPPNP, room temperature. Conditions: protein: recombinant; label: 5'-fluorescein; strands 21 and 22 nt: 21 bp with 1 nt 5' overhang (T) on strand 2.

The target in a further series is Arp7;Arp9;Sth1(301-1097) (budding yeast;budding yeast;budding …, UniProt Q12406;Q05123;P32597 1-477;1-467;301-1097, ||). The series is described as above. The conditions noted are these: protein: recombinant;recombinant;recombinant; copies: 1;1;1; label: 5'-fluorescein; strands 21 and 22 nt: 21 bp with 1 nt 5' overhang (T) on strand 2.
Series [9] deals with T2, Rtt102;Arp7;Arp9;Sth1(301-1097). The description is as above. The conditions noted are these: protein: recombinant;recombinant;recombinant;recombinant; copies: 1;1;1;1; label: 5'-fluorescein; strands 21 and 22 nt: 21 bp with 1 nt 5' overhang (T) on strand 2.
Target sequence in this assay (P32597 301-1097, chain 4 of 4, one chain of several): as the sequence (P32597 301-1097, one chain of several) above

T1 sequence (P32597 301-1097): as the sequence (P32597 301-1097, one chain of several) above
T4 sequence (P32597 301-1097, one chain of several): as the sequence (P32597 301-1097, one chain of several) above
Sequence of Arp7;Arp9;Sth1(301-1097) (P32597 301-1097, chain 3 of 3, one chain of several): as the sequence (P32597 301-1097, one chain of several) above
Sequence of Sth1(365-1097) (P32597 365-1097): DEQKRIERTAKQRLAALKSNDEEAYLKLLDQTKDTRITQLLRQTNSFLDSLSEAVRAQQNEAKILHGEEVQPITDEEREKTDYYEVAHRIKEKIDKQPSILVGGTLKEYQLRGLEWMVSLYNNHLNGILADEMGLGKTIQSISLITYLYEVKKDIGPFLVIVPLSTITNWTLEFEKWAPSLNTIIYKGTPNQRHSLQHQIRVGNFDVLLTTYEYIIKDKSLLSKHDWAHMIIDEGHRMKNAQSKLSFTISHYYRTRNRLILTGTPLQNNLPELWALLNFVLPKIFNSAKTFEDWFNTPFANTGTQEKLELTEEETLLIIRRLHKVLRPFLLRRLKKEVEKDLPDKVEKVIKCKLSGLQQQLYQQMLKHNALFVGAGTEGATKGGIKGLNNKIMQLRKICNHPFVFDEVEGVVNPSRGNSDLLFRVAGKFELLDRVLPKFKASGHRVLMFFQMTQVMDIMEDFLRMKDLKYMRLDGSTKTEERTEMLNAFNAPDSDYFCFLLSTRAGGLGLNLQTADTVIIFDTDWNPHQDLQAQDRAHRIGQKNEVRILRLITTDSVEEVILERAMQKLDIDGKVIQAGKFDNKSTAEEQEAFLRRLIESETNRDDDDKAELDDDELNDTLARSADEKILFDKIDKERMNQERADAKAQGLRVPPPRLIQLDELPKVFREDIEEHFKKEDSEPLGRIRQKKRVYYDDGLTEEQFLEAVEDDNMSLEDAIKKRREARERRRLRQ
Sequence of Sth1(365-1097) P1swap (budding yeast; Rad54 segment from S. solfataricus) (P32597 whole entry, the tested form may be a part): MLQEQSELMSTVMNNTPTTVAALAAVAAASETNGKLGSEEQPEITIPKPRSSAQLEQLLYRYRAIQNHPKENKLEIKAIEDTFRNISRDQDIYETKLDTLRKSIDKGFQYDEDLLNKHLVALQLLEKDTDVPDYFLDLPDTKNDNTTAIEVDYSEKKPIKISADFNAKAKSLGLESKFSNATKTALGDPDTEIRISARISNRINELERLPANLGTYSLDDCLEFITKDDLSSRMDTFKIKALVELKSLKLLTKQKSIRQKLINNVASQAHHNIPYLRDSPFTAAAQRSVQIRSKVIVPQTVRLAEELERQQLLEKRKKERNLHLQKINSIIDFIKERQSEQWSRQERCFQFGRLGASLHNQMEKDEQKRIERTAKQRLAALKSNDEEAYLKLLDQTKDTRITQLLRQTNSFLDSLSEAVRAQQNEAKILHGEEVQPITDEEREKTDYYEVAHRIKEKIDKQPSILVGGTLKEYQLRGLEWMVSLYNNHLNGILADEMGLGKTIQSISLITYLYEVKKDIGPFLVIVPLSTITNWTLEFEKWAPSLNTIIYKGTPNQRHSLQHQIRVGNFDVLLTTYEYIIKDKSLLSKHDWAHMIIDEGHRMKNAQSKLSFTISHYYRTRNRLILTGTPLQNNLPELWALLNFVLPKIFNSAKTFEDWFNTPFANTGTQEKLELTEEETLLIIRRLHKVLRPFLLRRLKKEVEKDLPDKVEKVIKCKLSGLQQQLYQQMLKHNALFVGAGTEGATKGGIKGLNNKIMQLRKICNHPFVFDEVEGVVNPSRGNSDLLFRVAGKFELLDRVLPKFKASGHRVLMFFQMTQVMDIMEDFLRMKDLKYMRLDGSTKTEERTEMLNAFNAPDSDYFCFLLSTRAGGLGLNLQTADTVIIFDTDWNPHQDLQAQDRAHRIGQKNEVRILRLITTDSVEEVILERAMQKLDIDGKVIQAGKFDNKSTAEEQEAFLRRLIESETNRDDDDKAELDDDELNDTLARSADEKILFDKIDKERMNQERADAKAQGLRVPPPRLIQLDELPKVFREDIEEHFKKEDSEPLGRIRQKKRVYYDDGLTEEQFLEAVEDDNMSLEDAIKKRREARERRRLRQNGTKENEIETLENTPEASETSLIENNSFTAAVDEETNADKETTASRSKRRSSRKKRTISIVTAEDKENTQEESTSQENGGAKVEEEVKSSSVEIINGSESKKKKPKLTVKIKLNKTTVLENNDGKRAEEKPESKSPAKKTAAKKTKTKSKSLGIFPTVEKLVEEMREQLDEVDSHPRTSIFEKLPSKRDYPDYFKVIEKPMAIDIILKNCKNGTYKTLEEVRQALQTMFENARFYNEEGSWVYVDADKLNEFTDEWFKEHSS

In the case of “601 nucleosome (Xenopus laevis core histone octamer)”, the Kd came out at 670 nM with Sth1(301-1097) [1] (1 mM ADP), 670 nM with Sth1(301-1097) [1] (1 mM AMPPNP), 510 nM in series [2] (1 mM ADP) and 460 nM in series [2] (1 mM AMPPNP).
On to `Nc1ncnc2c1ncn2[C@@H]1O[C@H](COP(=O)(O)OP(=O)(O)OP(=O)(O)O)[C@@H](O)[C@H]1O` [ATP], for which the “X-ray crystallography (3.25 Å)” value at Rtt102-Arp7/9 is “showed the presence of ATP in the nucleotide-binding cleft of Arp7 but not Arp9”. In series [3], the “phosphate release (MESG/purine nucleoside phosphorylase, 360 nm)” value is listed as “displays strong DNA-dependent ATPase activity catalyzed by subunit Sth1”.
Turning to “Rtt102-Arp7/9-Sth1_(301–1097) quaternary complex (from UniProt P32597 301-1097; Q12406 1-477; Q05123 1-467; P53330 1-157)”, the values for the Kd in series [4] and in [5] were 460 nM and 510 nM, respectively.
For the molecule “Sth1_(301–1097) (from UniProt P32597 301-1097) (domain or fragment)”, the Kd in [4] and in series [5] was 670 nM throughout.
In turn, “TCCATGTCCATGGATACGTGG / TCCACGTATCCATGGACATGGA [fluorescein DNA duplex]” came in with a Kd in series [6] of 520 nM.
As for “untagged ATPase fragment of TEV-cleaved Sth1_(301–1097) or Sth1_(365–1097) (from UniProt P32597 432-1097) (domain or fragment)”, in [7], the percent of the ATPase lost after passage through the Ni-NTA column came to 45%.

B1: fluorescein DNA duplex (dsDNA)
DNA 1: TCCATGTCCATGGATACGTGG
DNA 2: TCCACGTATCCATGGACATGGA
Consider B1, for which the Kd with Sth1(365-1097) stood at 700 ± 10 nM; with Sth1(301-1097) [8], 280 nM; in the series with Arp7;Arp9;Sth1(301-1097), 3000 nM; in series [9] it was 4200 nM.
